Our source for the Kd values is patent EP4059514A1 (Xencor, Inc., dated 2022).

The target in one assay is T1, cyno CD3 (cyno, UniProt Q95LI5 22-117).
T1 construct: also called cynomolgus monkey CD3
T1 sequence (looked up): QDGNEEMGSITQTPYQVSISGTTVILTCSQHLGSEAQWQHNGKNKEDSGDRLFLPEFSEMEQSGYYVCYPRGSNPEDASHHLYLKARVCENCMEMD
In words: method not stated in the legend (Figure 143).

The target in a further assay is human CD3 (human, UniProt P07766 23-126). Put plainly: method not stated in the legend (Figure 142).
Sequence of human CD3 (P07766 23-126): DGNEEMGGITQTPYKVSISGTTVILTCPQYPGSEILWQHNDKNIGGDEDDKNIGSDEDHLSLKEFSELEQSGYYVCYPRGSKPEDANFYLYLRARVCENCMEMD

B1: XENP14045 (anti-CD123 x anti-CD3) bispecific (bispecific antibody)
chain 1: QVQLQQSGAEVKKPGASVKVSCKASGYTFTDYYMKWVKQSHGKSLEWMGDIIPSNGATFYNQKFKGKATLTVDRSTSTAYMELSSLRSEDTAVYYCARSHLLRASWFAYWGQGTLVTVSSASTKGPSVFPLAPSSKSTSGGTAALGCLVKDYFPEPVTVSWNSGALTSGVHTFPAVLQSSGLYSLSSVVTVPSSSLGTQTYICNVNHKPSDTKVDKKVEPKSCDKTHTCPPCPAPPVAGPSVFLFPPKPKDTLMISRTPEVTCVVVDVKHEDPEVKFNWYVDGVEVHNAKTKPREEEYNSTYRVVSVLTVLHQDWLNGKEYKCKVSNKALPAPIEKTISKAKGQPREPQVYTLPPSREEMTKNQVSLTCDVSGFYPSDIAVEWESDGQPENNYKTTPPVLDSDGSFFLYSKLTVDKSRWEQGDVFSCSVMHEALHNHYTQKSLSLSPGK
chain 2: not shown
chain 3: not shown
One may read the Kd as the equilibrium constant for the complex coming apart. Read a low Kd as higher affinity. On to B1, for which the results for the dissociation constant Kd in the assay with cyno CD3 and with human CD3 were 5.7 nM and 8.1 nM, respectively.
